Assay: soluble on expression in E. coli; label from the status in PepcDB or PDB records

Soluble on expression in E. coli, not soluble:
KERIIGDLSQPVAVRVRTLIQQMTLAEKVAQLVSESDSIPRLNLPAYNYWNECLHGVARAGEVTVFPQAINLASTWDTVLVKRVASAISTEARLKYLEIGKGLTYWSPTINMARDPRWGRNEETYGEDPHLTSRLGVAFVKGLQGDHPTYLKTVATIKHFVANNEENNRFSSSSQIPTKQLYEYYFPAYEACVKEANAQSVMTAYNAFNGVPPSGSHWLLDDVLRKEWGFDGFVVSDCGAIGVMNWQHRVVNSLEEAAALGVNSGCDLECGTTYKEKLVQAVEQGLISEAAIDRALTRVLTARFKLGEFDPMELVPYNHYDKKLLA
KKHILVYNEEADEALRQIKADRIELHQSFKASFERLNEIQQLAYTNAMTRDAALIQEPDFDPEQLESDYYRNLYRINTRRDNLNTHRALEN
KKSSMRKELETIQLLWHQQKGQYQLSKETIELINHKCHDLKHQVQAIRAVKDEKERETYLEKIEKSVQIYSAIVRTGNEILDTILTEKSLICENSGIHINCVADGSLLAFMNPVDLYTLFGNALDNAIEAVRKLESKEKRVIDIMLYERQSFLMLQIVNPMCGEVKFEDGLPLTTKAKNGYHGYGMKSMLHTIQKYEGHLTTEVKNGCFYFNVMLPLERDSNKK
KNFDGDLNDYRQWRLAQENAAVAPAASAQSQSRKDTKRIEAQIRQEKARRGKPIQQKIDRAEKEMAQLSEIQTACEAFLAQEEAYFEENKEKLQDTLSELAKVKTQLAQIEEVWLACQEELEQIETEIEKQFAER
KNVWIFAEQREGKIAPVVIELLGEGRKLAKEVDAELCAILLGKDVDGLAKELITFGADKVYVADDALLEKYTTDAYTKVIKDAIDEIKPEIMLFGATHIGRDLAPRIASRVGTGLTADCTKLEIDPEDKKIKQTRPAFGGNIMATIICPNHRPQMSTVRPGVMDKAEKDETRTGEVIALDYKITQDDIRTTVLETV
KRETDNGHDVFESFEQMEKTAFVIPSAYGYDIKGYHVAPHDTPNTIIICHGVTMNVLNSLKYMHLFLDLGWNVLIYDHRRHGQSGGKTTSYGFYEKDDLNKVVSLLKNKTNHRGLIGIHGESMGAVTALLYAGAHCSDGADFYIADCPFACFDEQLAYRLRAEYRLPSWPLLPIADFFLKLRGGYRAREVSPLAVIDKIEKPVLFIHSKDDDYIPVSSTERLYEKKRGPKALYIAENGEHAMSYTKNRHTYRKTVQEFLDNMNDSTE
KTKVGNQSPDVRFGLQNTFKIKDFTVNIDMDGAIGGTLISTTTQKMWWGGKHPKSTMYRQEEYDNGGKPVYVPEGVNIVSGEVTYDVNGNIVSDTRVYKKNETAVNIQTWAQNYPYRAVVRTEESELFANTFSRSFLKLRRVAVTYDLTKFIQSQFIKGLDVTVFGNNLAVLKKTPYLDPDFGASDGDLQDPSARYVGVSANIKF
KVKVPYLRLSLPELHIDMDFLKKTVDFSSISALQQTVLYIGRLLVQSGINTLGVDAVAAFNAVSIIDSYVLAPGDSLAASITTFTAQNKGGKQYHRIPKG
LDPSGKSVIYTKSLAFEKALVRPEKEVKKVHTALDALNSSLADGRGVDFAYMMSIYQVESQMTLIEELGDLIMPDPEKYLNGELTYVSRQDFLSGDVVTKLEVVDLFVKQDNQDFNWSHYAGLLEAIKPARITLADIDYRIGSRWIPLAVYGKFAQETFMGKAYELSDQEVATVLEVSPIDGVITYQSKFAYTYSNATDRSLGVPASRYDSGRKIFENLLNSNQPTITKQVVEGDKKKNVTDVEKTTVLRAKETHLQELFQGFVAKYPEVQQMIEDTYNRLYNRTVSKSYDGSHLTIDGLAQNISLRPHQ
LFLPNTRAYRRYNRSVWAVRGSTRPQWQPPPKFQHAKCMSMRLAHRLQILLDDECHRRITAVARERGVPVATVVREAIDRGLVSPAGRRKSAGRRLLDAADMSVPEPRELKQELEALRARRG
LFTPHWIVRYLVENSLGRLWMLNRPESSLVDRMEYYIKPEKQETDFLKINSPEEIKICDPACGSGHMLVYAFDLLYAIYEEEGYTPSEIPEMILTHNLFGIEIDKRAGELAGFALAMKARGKDRRFFNKQVHPNICMLENVAFEQGELNDYIETVGRELFTNAHRATLLQFAEADNFGSLIRPVAKDISDLLHLLESKNLSGNLSLLSTHQKVLKALKQADYLSPKYHVVVANPPYMGGKGMNNRLKTFAQDNYPDSKSDTFAMFIERNLDLAVKKGMVAMITMQSWMFLSSFEKLRENILSNDTILSMAHFGARAFDSIGGEVVSTTAFVLENAQHPDYKGSYLRLVDGN
LGFNLKEAASIGIIGGADGPTTIYLTTKLAPHILSATAVAAYSYMSLVPLIQPPVIKALTTPEERRIRMEQLRPVSKREK
LHAEGPPSVICIRLLVGLVFLSEGIQKFMYPDQLGPGRFERIGIPAATFFADLDGVVEIVCGTLVLLGLLTRVAAVPLLIDMVGAIVLTKLRALQPGGFLGVEGFWGMAHAARTDLSMLLGLIFLLWSGPGRWSLDRRLSKRATACGAR
LKKKVKRTCSNCLKGTAININNDILCIEKGIVSSDYVCSKHRFMPSFSSIKRKIHTCIDCEHFIIFDTSNVEDRAFGICELFTVRKYDGKNKKVCSKFVKRVKKEVC

Soluble on expression in E. coli, soluble:
KEKVKEPVKHLNSKNFDEFITKNKIVVVDFWAEWCAPCLILAPVIEELANDYPQVAFGKLNTEESQDIAMRYGIMSLPTIMFFKNGELVDQILGAVPREEIEVRLKSLLE
KILAVTACPTGIAHTFMAADALKEKAKELGVEIKVETNGSSGIKHKLTAQEIEDAPAIIVAADKQVEMERFKGKRVLQVPVTAGIRRPQELIEKAMNQDAPIY
KISKISTGIPRVDELLYGGFDGRDNIVVSGNNFSQKRSFIYNFIKSSANSGMKVIIINVDGSSESLLADLARRGTDLENIILLDGFSKNFQEKVPPNAEVIDDPSNVSSVLKQYMLRAQKEKDFIFVFLSATPYLMDFNDQNRKFFVQLVHWNRKNSLLSTYVLDDFVGQTTAEWFAYMMDFSLYFKNDGDYDYMRVLSLKPVRTKDW
KIWLFFIEQANNEIRIDLRSNGINVRDIAIKYGGGGHNNASGAIITNKKQISDVVSD
KKEEASSKSYRELIIEGLTALKERKGSSRPALKKFIKENYPIVGSASNFDLYFNNAIKKGVEAGDFEQPKGPAGAVKLAKKKSPEVKKEKEVS
KLRQWLIDQIDSGKYPGLVWENEEKSIFRIPWKHAGKQDYNREEDAALFKAWALFKGKFREGIDKPDPPTWKTRLRCALNKSNDFEELVERSQLDISDPYKVYRIVPE
KNVNRVLSAEALKPGMLLTGTVSSLEDHGYLVDIGVDGTRAFLPLLKAQEYIRQKNKGAKLKVGQYLNCIVEKVKGNGGVVSLSVGHSEVSTAIATEQQSWNLNNL
KRKTKEQLAILKSFFLQCQWARREDYQKLEQITGLPRPEIIQWFGDTRYALKHGQLKWFRDNA
KTQGFLTMSRRRISCKDLGHADCQGWLYKKKEKGSFLSNKWKKFWVILKGSSLYWYSNQMAEKADGFVNLPDFTVERASECKKKHAFKISHPQIKTFYFAAENVQEMNVWLNKLGSAVIHQESTTKDEECYSESEQEDPEIAAETPPPPHASQTQSLTAQQASSSSPSLSGTSYSFSSLENTVKTPSSFPSSLSKERQSLPDTVNSLSAAEDEGQPITFAVQVHSPVPSEAGIHKALENSFVTSESGFLNSLSSDDTSSLSSNHDHLTVPDKPAGSKIMDKEETKVSEDDEMEKLYKSLEQASLSPLGDRRPSTKKELRKSFVKRCKNPSINEKLHKIRTLNSTLKCKEHDLAMINQLLDDPKLTARKYREWKVMNTLLIQDIYQQQRASPAPDDTDDTPQELKKSPSSPSVENSI
KVILYARVSSSTQKDELVNQVKYLEEQVKEYDLVITDIGSGLNMKRKGFLKLLRMILNNEVSRVVVAYPDRLVRVGFEILEEVCKAHNCEIVVLNQEDKEEELVEDLMSALVSFSGKLYGMRSHEYEKVKKCAEELKNWKI
KVKWTHEEDEQLRALVRQFGQQDWKFLASHFPNRTDQQCQYRWLRVL
KYKLVFLGEQAVGKTSIITRFMYDTFDNNYQSTIGIDFLSKTLYLDEGPVRLQLWDTAGQERFRSLIPSYIRDSAAAIVVYDITNRQSFENTTKWIQDILNERGKDVIIALVGNKTDLGDLRKVTYEEGMQKAQEYNTMFHETSAKAGHNIKVLFKKTASKL
LAKGLEDVYIDQTNICYIDGKEGKLYYRGYSVEELAELSTFEEVVYLLWWGKLPSLSELENFKKELAKSRGLPKEVIEIMEALPKNTHPMGALRTIISYLGNIDDSGDIPVTPEEVYRIGISVTAKIPTIVANWYRIKNGLEYVPPKEKLSHAANFLYMLHGEEPPKEWEKAMDVALILYAEHEINASTLAVMTVGSTLSDYYSAILAGIGALKGPIHGGAVEEAIKQFMEIGSPEKVEEWFFKALQQKRKIMGAGHRVYKTYDPRARIFKKYASKLGDKKLFEIAERLERLVEEYLSKKGISINVDYWSGLVFYGMKIPIELYTTIFAMGRIAGWTAHLAEYVSHNRIIRPRLQYVGEIGKKYLPIELRR
LAMVDNLQGDSGRGYYLEMLIGTPPQKLQILVDTGSSNFAVAGTPHSYIDTYFDTERSSTYRSKGFDVTVKYTQGSWTGFVGEDLVTIPKGFNTSFLVNIATIFESENFFLPGIKWNGILGLAYATLAKPSSSLETFFDSLVTQANIPNVFSMQMCGAGLPVAGSGTNGGSLVLGGIEPSLYKGDIWYTPIKEEWYYQIEILKLEIGGQSLNLDCREYNADKAIVDSGTTLLRLPQKVFDAVVEAVARASLIPEFSDGFWTGSQLACWTNSETPWSYFPKISIYLRDENSSRSFRITILPQLYIQPMMGAGLNYECYRFGISPSTNALVIGATVMEGFYVIFDRAQKRVGFAASPCAEIAGAAVSEISGPFSTEDVASNCVPA
LEAPRDLEAKEVTPRTALLTWTEPPVRPAGYLLSFHTPGGQTQEILLPGGITSHQLLGLFPSTSYNARLQAMWGQSLLPPVSTSFTTGGLRI
LIERIEGFEPQWWEQGGAKPEKPEMREPRQRNRYESAKAQREKNTRPENAANDAGAACGKIAGRSRRSRREHRTCALLQPRYGVK
LKPKILTASRKIKIKAGFTHNLEVDFIGAPDPTATWTVGDSGAALAPELLVDAKSSTTSIFFPSAKRADSGNYKLKVKNELGEDEAIFEVIVQ
LKVREDENNPFYFRSSNSFQTLFENQNGRIRLLQRFNKRSPQLENLRDYRIVQFQSKPNTILLPHHADADFLLFVLSGRAILTLVNNDDRDSYNLHPGDAQRIPAGTTYYLVNPHDHQNLKMIWLAIPVNKPGRYDDFFLSSTQAQQSYLQGFSHNILETSFHSEFEEINRVLFGEEEEQRQQEGVIVELSKEQIRQLSRRAKSSSRKTISSEDEPFNLRSRNPIYSNNFGKFFEITPEKNPQLRDLDIFLSSVDINEGALLLPHFNSKAIVILVINEGDANIELVGIKEQQQKQKQEEEPLEVQRYRAELSEDDVFVIPAAYPFVVNATSNLNFLAFGINAENNQRNFLAGEKDNVVRQIERQVQELAFPGSAQDVERLLKKQRESYFVDAQPQQKEEGSKGRKGPFPSILGALY
